The results in this text go back to US5474928A, “Arginine deiminase from a Mycoplasma arginini strain” (Nippon Mining Company, Limited, priority 1989, dated 1995).

Substrate in the data set: N=C(N)NCCC[C@H](N)C(=O)O
Description: Km determination by Lineweaver-Burk plot analysis, citrulline formation assay. It counts as biochemical, Mycoplasma arginini. To be noted: other: purified enzyme from M. arginini, substrate L-arginine, pH 7.0. The protocol: The activity of arginine deiminase can be determined by causing it to produce citrulline using the method reported by Fenske et. al. [J. Bacteriol. 126, 501-510 (1976)], and by measuring the amount of the yields using the method given by Archibald [J. Biol. Chem. 156, 121-142 (1944)].
Specifically, 20 μl of arginine deiminase solution is added to 1.0 ml of 10 mM arginine [dissolved in 0.1M phosphate buffer of pH 7.0], then an enzyme reaction is allowed to take place at 37° C. for 10 minutes, and the reaction is terminated by adding 1 ml of mixed acid solution (H2 SO4 :H3 PO4 =1:3). Then, the resultant reactive solution is added with 25 μl of 3% aqueous diacetylmonooxim solution, heated at 100° C. for 20 minutes under a light-shielded condition, left to cool under a room temperature for 30 minutes, and then the amount of the citrulline yield is measured quantitatively by measuring the absorbence at 490 nm. The activity of arginine deiminase producing 1 μmol of citrulline in one minute is defined as 1 unit.
v) Km value and Vmax value
By the Lineweaver-Burk plot analysis Km and Vmax were determined as 0.2 mM and 50 U/mg, respectively.

B1: Mycoplasma arginini (IFO 14476) arginine deiminase (EC 3.5.3.6), present invention, amino acid sequence of FIG. 4 (Mycoplasmopsis arginini) (protein)
chain: MSVFDSKFKGIHVYSEIGELESVLVHEPGREIDYITPARLDELLFSAILESHDARKEHKQFVAELKANDINVVELIDLVAETYDLASQEAKDKLIEEFLEDSEPVLSEEHKVVVRNFLKAKKTSRELVEIMMAGITKYDLGIEADHELIVDPMPNLYFTRDPFASVGNGVTIHYMRYKVRQRETLFSRFVFSNHPKLINTPWYYDPSLKLSIEGGDVFIYNNDTLVVGVSERTDLQTVTLLAKNIVANKECEFKRIVAINVPKWTNLMHLDTWLTMLDKDKFLYSPIANDVFKFWDYDLVNGGAEPQPVENGLPLEGLLQSIINKKPVLIPIAGEGASQMEIERETHFDGTNYLAIRPGVVIGYSRNEKTNAALEAAGIKVLPFHGNQLSLGMGNARCMSMPLSRKDVKW
notes: Arginine deiminase was purified from the M. arginini cell extract; endogenous in cells; host or cells: Mycoplasma arginini IFO 14476 cells (strain from the Institute for Fermentation, Osaka); enzyme purified in house by three chromatography steps
The term Km denotes the substrate concentration at which the rate is half of its maximum. As to B1, the Michaelis constant (Km) amounted to 200 µM.
